Molecular target: T1, PrfA, the central virulence regulator of Listeria (Listeria monocytogenes EGD-e, UniProt P22262 1-237)
T1 construct: PrfA, virulence regulator of the Crp/Fnr family, L. monocytogenes EGD-e, full-length ORF; The methods describe the recombinant proteins in general, not PrfA by name
T1 sequence: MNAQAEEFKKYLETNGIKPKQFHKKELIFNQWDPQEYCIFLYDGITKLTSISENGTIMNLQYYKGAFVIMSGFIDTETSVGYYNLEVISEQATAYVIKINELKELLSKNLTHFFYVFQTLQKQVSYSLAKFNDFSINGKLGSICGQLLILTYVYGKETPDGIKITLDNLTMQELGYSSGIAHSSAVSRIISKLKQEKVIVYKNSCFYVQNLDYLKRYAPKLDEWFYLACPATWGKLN
Assay: ITC; TrxA, TrxAox or TrxA active-site mutants (80-200 uM) in the syringe, PrfA, MogR, GmaR or MogR and GmaR (8-20 uM) in the cuvette; 25 C; 25 mM Tris-HCl pH 7.5, 100 mM NaCl; 15 uL injections, 300 s spacing; 1:1 binding model
Settings: both partners purified

B1: Listeria monocytogenes thioredoxin A (TrxA) (enzyme, Listeria monocytogenes EGD-e, UniProt P0A4L3 1-103, looked up)
chain: MVKEITDATFEQETSEGLVLTDFWATWCGPCRMVAPVLEEIQEERGEALKIVKMDVDENPETPGSFGVMSIPTLLIKKDGEVVETIIGYRPKEELDEVINKYV
notes: Thioredoxin A (TrxA, Lmo1233) of L. monocytogenes EGD-e, full-length ORF; pET30a(+) may add further vector-encoded residues between the His tag and the ORF; also called Lmo1233
B1: binds.
